Test results from the Immune Epitope Database (IEDB).

Key:
HLA-A*02:01 [1] = assay: IEDB peptide-MHC binding, purified MHC/competitive/radioactivity; filed as Kd, often an IC50 or EC50 that approximates it; ≥ and ≤ were set here for values at or beyond the usual limits of such assays
HLA-A*02:17 = assay: as above
HLA-A*02:03 = assay: as above
HLA-B*57:01 [2] = assay: IEDB peptide-MHC binding, purified MHC/direct/fluorescence; filed as Kd, often an IC50 or EC50 that approximates it; ≥ and ≤ were set here for values at or beyond the usual limits of such assays
HLA-B*58:01 = assay: as above
HLA-B*15:17 = assay: as above
HLA-A*02:06 = assay: IEDB peptide-MHC binding, purified MHC/competitive/radioactivity; filed as Kd, often an IC50 or EC50 that approximates it; ≥ and ≤ were set here for values at or beyond the usual limits of such assays
HLA-B*48:01 = assay: IEDB peptide-MHC binding, purified MHC/direct/fluorescence; filed as Kd, often an IC50 or EC50 that approximates it; ≥ and ≤ were set here for values at or beyond the usual limits of such assays
HLA-B*57:01 [3] = assay: IEDB peptide-MHC binding, purified MHC/competitive/radioactivity; filed as Kd, often an IC50 or EC50 that approximates it; ≥ and ≤ were set here for values at or beyond the usual limits of such assays
HLA-A*68:01 = assay: as above; details: source organism: Dengue virus 3 Martinique/1243/1999
HLA-A*11:01 = assay: IEDB peptide-MHC binding, purified MHC/competitive/fluorescence; ≥ and ≤ were set here for values at or beyond the usual limits of such assays; details: source organism: Vaccinia virus
HLA-A*30:02 = assay: IEDB peptide-MHC binding, purified MHC/competitive/radioactivity; filed as Kd, often an IC50 or EC50 that approximates it; ≥ and ≤ were set here for values at or beyond the usual limits of such assays; details: source organism: Dengue virus 2 Jamaica/1409/1983
HLA-B*46:01 = assay: IEDB peptide-MHC binding, purified MHC/direct/fluorescence; filed as Kd, often an IC50 or EC50 that approximates it; ≥ and ≤ were set here for values at or beyond the usual limits of such assays; details: source organism: Dengue virus
HLA-A*02:12 = assay: as above; details: source organism: Orthohantavirus tulaense
HLA-A*02:11 = assay: as above; details: source organism: Orthohantavirus tulaense
HLA-A*02:01 [4] = assay: as above; details: source organism: Orthohantavirus andesense
HLA-A*02:19 = assay: as above; details: source organism: Orthohantavirus tulaense
HLA-B*27:05 = assay: as above; details: source organism: Francisella tularensis subsp. holarctica LVS
HLA-B*08:01 = assay: IEDB peptide-MHC binding, purified MHC/competitive/radioactivity; filed as Kd, often an IC50 or EC50 that approximates it; ≥ and ≤ were set here for values at or beyond the usual limits of such assays
HLA-B*15:01 = assay: as above; details: source organism: Dengue virus 2 Peru/IQT2913/1996
HLA-B*44:02 = assay: as above
HLA-B*18:01 = assay: as above
HLA-B*40:01 = assay: as above
HLA-B*44:03 = assay: as above
HLA-B*40:02 = assay: as above
HLA-B*45:01 = assay: as above
[5] = source organism: Dengue virus 2 Jamaica/1409/1983
[6] = source organism: Dengue virus 4 Dominica/814669/1981
[7] = source organism: Marburg virus - Musoke, Kenya, 1980
[8] = source organism: Dengue virus 4 Philippines/H241/1956
[9] = source organism: Dengue virus 1 Singapore/S275/1990
[10] = source organism: Dengue virus 1 Brazil/97-11/1997
[11] = source organism: West Nile virus
[12] = source organism: Dengue virus 3 Martinique/1243/1999
[13] = source organism: Camelpox virus M-96
[14] = source organism: Dengue virus 3 China/80-2/1980
[15] = source organism: Yellow fever virus
[16] = source organism: Dengue virus 2 Thailand/NGS-C/1944
[17] = source organism: Dengue virus 2 Peru/IQT2913/1996
[18] = source organism: Mammarenavirus machupoense
[19] = source organism: Mammarenavirus juninense

With ALLLLVAHYA the Kd (HLA-A*02:01 [1]; [5]) was 1330 nM and the Kd (HLA-A*02:17; [5]) was ≥ 70400 nM.

ALSEGVYRI was tested, and the Kd (HLA-A*02:03; [6]) was 17.3 nM, the Kd (HLA-A*02:01 [1]; [6]) was 2.88 nM and the Kd (HLA-A*02:17; [6]) was 172 nM.

ATAVNQECW was tested, and the Kd (HLA-B*57:01 [2]; [7]) was 122 nM, the Kd (HLA-B*58:01; [7]) was 51.6 nM and the Kd (HLA-B*15:17; [7]) was 4.1 nM.

FLDLPLPWA showed a Kd (HLA-A*02:01 [1]; [8]) of 10.4 nM and a Kd (HLA-A*02:17; [8]) of 108 nM.

FMNEDHWFS showed a Kd (HLA-A*02:01 [1]; [9]) of 9.76 nM, a Kd (HLA-A*02:06; [10]) of 270 nM and a Kd (HLA-A*02:17; [9]) of 244 nM.

Work on GQWGGDWAV yielded a Kd (HLA-B*48:01; source organism: Brucella abortus 2308) of 61.4 nM.

In the case of GRMEKKTWK, the Kd (HLA-B*48:01; [11]) is reported as ≥ 20000 nM.

GTSGSPIINR was tested, and the Kd (HLA-B*57:01 [3]; [12]) was 4000 nM and the Kd (HLA-A*68:01) was 13.8 nM.

For GTSGSPIVDR, the Kd (HLA-B*57:01 [3]; [5]) was 2340 nM.

Sequence IILEFFLMV has a Kd (HLA-A*02:06; [10]) of 1.78 nM and a Kd (HLA-A*02:17; [8]) of 182 nM.

ISGSNIVIF was tested, and the Kd (HLA-B*57:01 [2]; [13]) was ≥ 20000 nM, the Kd (HLA-B*58:01; [13]) was 904 nM and the Kd (HLA-B*15:17; [13]) was 155 nM.

KGVEYNIDK gave an IC50 (HLA-A*11:01) of 31600 nM.

Work on KLEKASLIEV yielded a Kd (HLA-A*02:17; [14]) of 1140 nM.

For KLFMALVAFL, the Kd (HLA-A*02:03; [5]) was 3.35 nM, the Kd (HLA-A*02:01 [1]; [5]) was 46.6 nM and the Kd (HLA-A*02:17; [5]) was 51.8 nM.

For KLQLKGMSY, the Kd (HLA-A*30:02) was 131 nM and the Kd (HLA-B*46:01) was ≥ 20000 nM.

KLYEGDLRV was tested, and the Kd (HLA-A*02:12) was 5 nM, the Kd (HLA-A*02:11) was ≤ 1 nM and the Kd (HLA-A*02:01 [4]) was ≤ 1 nM. It also gave a Kd (HLA-A*02:19) of 8 nM.

Work on KPYMAMSAL yielded a Kd (HLA-B*48:01; source organism: Salmonella enterica subsp. enterica serovar Typhimurium) of 541 nM.

Sequence KQLGQVMLLV has a Kd (HLA-A*02:01 [1]; [8]) of 20.2 nM, a Kd (HLA-A*02:06; [12]) of 5.78 nM and a Kd (HLA-A*02:17; [8]) of 172 nM.

For KRLSVNQKY, the Kd (HLA-B*27:05) was 62.2 nM and the Kd (HLA-B*48:01; source organism: Francisella tularensis subsp. holarctica LVS) was ≥ 20000 nM.

Sequence KSFLVHREW has a Kd (HLA-B*15:17; [11]) of 5.7 nM.

With LAVMGDAAW the Kd (HLA-B*57:01 [2]; [15]) was 35.5 nM and the Kd (HLA-B*15:17; [15]) was 27 nM.

LLLMRTSWAL showed a Kd (HLA-A*02:01 [1]; [14]) of 5.52 nM, a Kd (HLA-A*02:06; [12]) of 13.3 nM and a Kd (HLA-A*02:17; [14]) of 15.3 nM. For the same sequence, the Kd (HLA-B*08:01; [12]) was 1.47 nM.

With LLLTIGLSLV the Kd (HLA-A*02:03; [10]) was 14.6 nM, the Kd (HLA-A*02:01 [1]; [9]) was 3.91 nM and the Kd (HLA-A*02:06; [10]) was 62 nM. It also gave a Kd (HLA-A*02:17; [9]) of 2620 nM.

LMMTTIGIVL showed a Kd (HLA-B*15:01) of 21.7 nM, a Kd (HLA-A*02:01 [1]; [16]) of 28.9 nM and a Kd (HLA-A*02:06; [17]) of 30.8 nM. It also gave a Kd (HLA-A*02:17; [16]) of 1190 nM and a Kd (HLA-B*08:01; [17]) of 5900 nM.

With LTSLGKAVHQ the Kd (HLA-B*57:01 [3]; [8]) was ≥ 70400 nM.

For NDNFLMRNV, the Kd (HLA-B*44:02; [18]) was 9960 nM, the Kd (HLA-B*18:01; [18]) was ≥ 76700 nM and the Kd (HLA-B*40:01; [18]) was ≥ 76100 nM. For the same sequence, the Kd (HLA-B*44:03; [18]) was ≥ 42500 nM, the Kd (HLA-B*40:02; [18]) was 2120 nM and the Kd (HLA-B*45:01; [18]) was ≥ 77500 nM.

With NVTTQSIHE the IC50 (HLA-A*11:01) was ≥ 148000 nM.

PDFNSLISI was tested, and the Kd (HLA-B*44:02; [18]) was ≥ 26600 nM, the Kd (HLA-B*18:01; [18]) was ≥ 77500 nM and the Kd (HLA-B*40:01; [18]) was 15800 nM. For the same sequence, the Kd (HLA-B*44:03; [18]) was ≥ 78100 nM, the Kd (HLA-B*40:02; [18]) was 813 nM and the Kd (HLA-B*45:01; [18]) was ≥ 77700 nM.

In the case of PDVLRSDVY, the Kd (HLA-B*44:02; [19]) is reported as ≥ 48500 nM, the Kd (HLA-B*18:01; [19]) is reported as 2250 nM and the Kd (HLA-B*40:01; [19]) is reported as ≥ 76100 nM. For the same sequence, the Kd (HLA-B*44:03; [19]) was ≥ 78100 nM, the Kd (HLA-B*40:02; [19]) was ≥ 77200 nM and the Kd (HLA-B*45:01; [19]) was ≥ 77700 nM.
